Results from article PMC4269414, “Stubborn Contaminants: Influence of Detergents on the Purity of the Multidrug ABC Transporter BmrA” (PLoS ONE, 2014).
Residue numbers refer to the chain shown, from its start. Names and notes keep the numbering of the source. Values belong to the binder of their own block, whether it stands above or below them.

Key:
[1] = target: the molecule itself; assay: crystal structure; OmpF crystallised from the FC12-purified BmrA sample with 5 mM ADP; PEG 1500, 2-methyl-2,4-pentanediol, 0.1 M Tris-HCl pH 8.0, 19°C; space group C2; molecular replacement with an OmpF trimer
[2] = target: T1, E504Q BmrA mutant, full-length, His6-tagged (uncleaved) (Bacillus subtilis, UniProt O06967 1-589, E504Q); assay: pull-down; second Ni2+ High Trap chelating column in DDM after partial trypsin cleavage of the N-terminal His6 tag; flow-through against the peak eluted with 250 mM imidazole, fractions on SDS-PAGE; conditions: both partners purified
T1 construct: BmrA, Bacillus subtilis, E504Q mutant; the part of the sample left uncut after a short trypsin digestion with 2 mM ATP and MgCl2; also called tagged, uncleaved monomer; source: E. coli membranes, solubilised with DDM, purified (Ni2+ high trap chelating column, PD-10 desalting); not shown: His6, N-terminal, kept
T1 sequence (looked up): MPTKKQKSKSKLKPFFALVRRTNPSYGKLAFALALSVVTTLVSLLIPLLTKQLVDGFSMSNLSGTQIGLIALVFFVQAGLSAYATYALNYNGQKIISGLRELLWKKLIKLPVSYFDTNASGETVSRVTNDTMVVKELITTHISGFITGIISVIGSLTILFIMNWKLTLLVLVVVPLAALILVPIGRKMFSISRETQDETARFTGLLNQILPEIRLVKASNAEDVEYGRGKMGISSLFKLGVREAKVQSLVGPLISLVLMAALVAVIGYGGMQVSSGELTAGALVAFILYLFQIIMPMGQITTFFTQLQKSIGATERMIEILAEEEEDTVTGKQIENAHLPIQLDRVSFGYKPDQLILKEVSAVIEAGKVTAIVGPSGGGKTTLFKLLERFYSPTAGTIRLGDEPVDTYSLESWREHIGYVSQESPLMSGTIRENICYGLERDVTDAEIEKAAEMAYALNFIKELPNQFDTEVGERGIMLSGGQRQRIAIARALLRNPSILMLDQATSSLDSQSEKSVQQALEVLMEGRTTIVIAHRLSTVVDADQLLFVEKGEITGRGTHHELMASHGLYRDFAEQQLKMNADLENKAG

[3] = target: the molecule itself; assay: SEC; HiLoad 16/60 Superdex 200 PG, 25 mM Tris-HCl pH 8.0, 150 mM NaCl with detergent (DDM, UDM, UTM, LMNG, LDAO or FC12), 4°C; elution volume compared with that expected for dimers in detergent micelles

B1: Outer membrane protein F (OmpF) (natural protein, E. coli (endogenous in C41(DE3)), UniProt P02931 23-362, looked up)
chain: AEIYNKDGNKVDLYGKAVGLHYFSKGNGENSYGGNGDMTYARLGFKGETQINSDLTGYGQWEYNFQGNNSEGADAQTGNKTRLAFAGLKYADVGSFDYGRNYGVVYDALGYTDMLPEFGGDTAYSDDFFVGRVGGVATYRNSNFFGLVDGLNFAVQYLGKNERDTARRSNGDGVGGSISYEYEGFGIVGAYGAADRTNLQEAQPLGNGKKAEQWATGLKYDANNIYLAANYGETRNATPITNKFTNTSGFANKTQDVLLVAQYQFDFGLRPSIAYTKSKAKDVEGIGDVDLVNYFEVGATYYFNKNMSTYVDYIINQIDSDNKLGVGSDDTVAVGIVYQF
notes: Outer membrane protein F of E. coli, identified by mass spectrometry as P02931; structure deposited as PDB 4JFB, solved with a trimer of PDB 2ZFG as search model; The expression strain is C41(DE3), whose OmpF may differ from that entry; also called outer membrane porin OmpF; source: endogenous, E. coli C41(DE3); co-extracted and co-purified with BmrA in FC12, crystallised from that sample
stoichiometry N [1]: 3

binding result [2]: binds
B2: E504Q BmrA mutant, untagged, cleaved by trypsin (starts at Leu12) (domain or fragment, Bacillus subtilis, UniProt O06967 12-589, looked up)
chain: LKPFFALVRRTNPSYGKLAFALALSVVTTLVSLLIPLLTKQLVDGFSMSNLSGTQIGLIALVFFVQAGLSAYATYALNYNGQKIISGLRELLWKKLIKLPVSYFDTNASGETVSRVTNDTMVVKELITTHISGFITGIISVIGSLTILFIMNWKLTLLVLVVVPLAALILVPIGRKMFSISRETQDETARFTGLLNQILPEIRLVKASNAEDVEYGRGKMGISSLFKLGVREAKVQSLVGPLISLVLMAALVAVIGYGGMQVSSGELTAGALVAFILYLFQIIMPMGQITTFFTQLQKSIGATERMIEILAEEEEDTVTGKQIENAHLPIQLDRVSFGYKPDQLILKEVSAVIEAGKVTAIVGPSGGGKTTLFKLLERFYSPTAGTIRLGDEPVDTYSLESWREHIGYVSQESPLMSGTIRENICYGLERDVTDAEIEKAAEMAYALNFIKELPNQFDTEVGERGIMLSGGQRQRIAIARALLRNPSILMLDQATSSLDSQSEKSVQQALEVLMEGRTTIVIAHRLSTVVDADQLLFVEKGEITGRGTHHELMASHGLYRDFAEQQLKMNADLENKAG
notes: BmrA, Bacillus subtilis, E504Q mutant, cut by trypsin between Lys11 and Leu12; The His6 tag is lost together with residues 1-11; also called untagged BmrA; untagged, cleaved, monomer

B3: BmrA (Bacillus multidrug resistance ATP), 6-histidine N-terminal tag (natural protein, Bacillus subtilis, UniProt O06967 1-589, looked up)
chain: T1 sequence (looked up) with Q504E
notes: also called multidrug ABC transporter BmrA; source: E. coli C41(DE3) membranes, solubilised and purified in detergent (Q-Sepharose and Ni column in FC12; or Ni-NTA and SEC in DDM, UDM, UTM, LMNG, LDAO or FC12); not shown: His6, N-terminal, kept
stoichiometry N [3]: 2
